The labels stand for the following.
B1: 41 (protein, listed as Polaromonas sp.)
chain: MANGKIALEEHFATEETLMDSAGFVPDKDWPELRSRLLDIQDRRVRLMDEHGIETMILSLNAPAVQAIADSTRANETARRANDFLAEQVAKQPTRFRGFAALPMQDPELAARELERCVKELGFVGALVNGFSQDNRSAVPLYYDMAQYWPFWETVQALDVPFYLHPRNPLPSDARIYDGHAWLLGPTWAFGQETAVHALRLMGSGLFDKYPALKIILGHMGEGLPYSMWRIDHRNAWIKTTPKYPAKRKIVDYFNENFYLTTSGNFRTQTLIDAILEIGADRILFSTDWPFENIDHAADWFENTSISEADRKKIGWGNAQNLFKLNR
B2: 115 (protein)
chain: MAQGKVALEEHFAIPDTLTTYTTSGDYEKELKHRLLDIQDTRLKLMDAHGIETMILSLNAPGVQAIPDRRKAIEIARRANDVLAEECAKRPDRFLAFAALPLQDPDAATEELQRCVNDLGFVGALVNGFSQEGDGQTPLYYDLPQYRPFWGEVEKLDVPFYLHPRNPLPQDSRIYDGHPWLLGPTWAFAQETAVHALRLMASGLFDEHPRLNIILGHMGEGLPYMMWRIDHRNAWVKTPPRYPAKRRFMDYFNENFHITTSGNFRTQTLIDAILEIGADRILFSTDWPFENIDHASDWFNATSIAEADRVKIGRTNARRLFKLDGA
modifications: Dicamba decarboxylase variant clone DC.4.161
B3: 114 (protein)
chain: MAQGKVALEEHFAIPETLQDSAGAVPGDYWKELQHRLLDIQDTRLKLMDAHGIETMILSLNAPAVQAIPDRRKAIEIARRANDVLAEECAKRPDRFLAFAALPLQDPDAATEELQRCVNDLGFVGALVNGFSQEGDGQTPLYYDLPQYRPFWGEVEKLDVPFYLHPRNPLPQDSRIYDGHPWLLGPTWAFAQETAVHALRLMASGLFDEHPRLNIILGHMGEGLPYMMWRIDHRVAWVKLPPRYPAKRRFMDYFNENFHITTSGNFRTQTLIDAILEIGADRILFSTDWPFENIDHASDWFNATSIAEADRVKIGRTNARRLFKLDGA
modifications: Dicamba decarboxylase variant clone DC.4.116
B4: 110 (protein)
chain: B3 chain with A22M, A24F, Q34M, V235M
modifications: Dicamba decarboxylase variant clone DC.4.111
B5: 109 (protein)
chain: B3 chain with A24F
modifications: Dicamba decarboxylase variant clone DC.4.032
B6: 108 (protein, listed as Staphylococcus aureus)
chain: MAKSITFEEHYVIEDIQKETMNAISADPKGVPMKVMLEGLEKKTGFTNADELSHHDERIQFMNNQDVQIQVLSYGNGSPSNLVGQKAIELCQKANDQLANYIAQYPNRFVGFATLPINEPEAAAREFERCINDLGFKGALIMGRAQDGFLDQDKYDIIFKTAENLDVPIYLHPAPVNSDIYQSYYKGNYPEVTAATFACFGYGWHIDVGIHAIHLVLSGIFDRYPKLNMIIGHWGEFIPFFLERMDEALFAEHLNHSVSYYFKNSFYITPSGMLTKPQFDLVKKEVGIDRILYAADYPYIEPEKLGVFLDELGLTDEEKEKISYTNGAKLLGLSSNN
B7: 32 (protein)
chain: MARIIAIEEHFLDLDIARASRPEAERLSPAFAAAYGAGQGYNYSPAPEVLLDLEEGRVADMDAHGISMQVLSSLSTQQLPADVAVELVRKVNDRAAAAVAARPDRFAAFAALPTTVPEAAADELDRAVGELGFVGSMINGRTGDAFLDAPRFDAVLRRSAELRVPVYLHPGVPPVETSRSNYEGGLDPIVTARLQTSAWGWHVETGIHFLHLVLAGVFDRYPDLQVILGHWGEMVPFFLERIEEALPQQITHLDRPVGAYFRENAHITPSGMFSQAQLQFCVETVGIERIMFSVDYPFLGNDGAEAFLRQANLPPLATEKIAHLNAERLLALPS
modifications: Streptomyces violaceusniger
B8: 116 (protein)
chain: MAQGKVALEEHFAIPETLQDAAGFVPGDYWKELQHRLLDIQDRRVRLMDEHGIETMILSLNAPAVQAIADSTRANETARRANDFLAEQVAKQPTRFRGFAALPMQDPELAARELERCVKELGFVGALVNGFSQDNRSAVPLYYDMAQYWPFWETVQALDVPFYLHPRNPLPSDARIYDGHAWLLGPTWAFGQETAVHALRLMGSGLFDKYPALKIILGHMGEGLPYSMWRIDHRNAWIKTTPKYPAKRKIVDYFNENFYLTTSGNFRTQTLIDAILEIGADRILFSTDWPFENIDHAADWFENTSISEADRKKIGWGNAQNLFKLNR
modifications: Dicamba decarboxylase variant clone DC.30.007

Residue numbers refer to the chain shown, from its start. “Also recorded” adds a separate entry of the source.

One data set in a line: 14C assay: 14CO2 capture from [14C]-carboxyl-labeled dicamba with purified protein. It is filed as biochemical.
Settings: not given
In the case of B1, the CO2 product detected result is “detected”.
Still for that read-out and setting: for B2 the value was “detected”.
Still for that read-out and setting: for B3 the value was “detected”.
On the same count and under the same terms, the entry for B4 is “detected”; for B5 it is “detected”; for B6 it is “detected”.
Take B7: the CO2 product detected entry is “detected”.
Same read-out and setting: the entry for B8 is “detected”.

The nature of the next data set: LC-MS/MS detection of 4-chloro-3-methoxy phenol. To be noted: purified protein, dicamba. It is filed as biochemical. As for the experimental part:
The decarboxylated and chloro hydrolyzed product, 4-chloro-3-methoxy phenol (FIG. 1D), is measured using a LC-MS/MS analytical procedure. […] 10 ul is removed from the reaction mixture and mixed with 90 ul pre-chilled methanol followed by centrifugation at 14,000 rpm for 15 min at 4° C. 10 ul of the supernatant is then transferred into 170 ul ddH2O to achieve 5% methanol solution for injection. 50 ul of the prepared sample is injected into a 4000 Q Trap LC-MS/MS system for sample analysis. LC-MS/MS parameters are: Mobile Phase A, 2 mM ammonium acetate in water; Mobile Phase B, 2 mM ammonium acetate in methanol; Column, Aquasil, 100×2.1 mm, 3 μm, C18 column; Flow Rate, 0.6 ml/min. The MS/MS fragment 157/142 which is common to 4-chloro-3-methoxy phenol, 2-chloro-5-methoxy phenol, and 3-chloro-5-methoxy phenol is monitored at a retention time of 2.88 min.
For the molecule B1, the “4-chloro-3-methoxy phenol product detected” value was “detected”.
Still for that read-out and setting: the entry for B2 is “detected”; for B3 it is “detected”.
Still for that read-out and setting: the entry for B4 is “detected”; for B5 it is “detected”; for B6 it is “detected”.
Same read-out and setting: for B7 the value was “detected”.
On to B8, for which the “4-chloro-3-methoxy phenol product detected” value is reported as “detected”.

The nature of the next data set: GC/MS detection of 2,5-dichloro phenol (2,5-DCP); kinetic determination. To be noted: purified protein, dicamba. It is filed as biochemical. As for the experimental part: The decarboxylated and demethylated product of dicamba, 2,5-dichloro phenol or 2,5-DCP (FIG. 1E) is measured using a GC/MS analytical procedure with either liquid injection after liquid/liquid extraction using toluene as the extraction solvent or gas injection using head space method. The head space sample analysis is carried out on an Agilent GC/MS system with a 6890A GC, a 5973N MSD and a CTC CombiPAL auto-sampler or with a 7890A GC, a 5975C MSD and an Agilent GC Sampler 80 auto-sampler with Phenomenex ZB-MultiResidue-1 column (30 m length, 0.25 mm diameter, 0.25 um film) or equivalent. GC/MS parameters are: GC inlet temperature, 200° C.; Carry gas, helium in constant flow mode (1.2 mL/min); Oven temperature program, 70° C. for 1 min and then ramp to 275° C. at 40° C./min. […] The reaction vial is transferred to a agitator for incubation at 90° C. for 4 min at 500 rpm. With a syringe preheated at 110° C., 1000 uL of head space is injected with sample fill speed at 100 uL/sec. A 2-mm diameter liner is used in sample inlet. The MS data acquisition is done in SIM (selected ion monitoring) mode. The positive ion at M/Z 162 for the molecular ion of 2,-5-DCP is monitored at retention time of 4.06 min. Solvent delay for MS acquisition is set at 3 min. GC/MS parameters for liquid sample analysis are the same as those for head space analysis, except that the volume of liquid injection is 1 uL.
As to B1, the “2,5-DCP product detected” value was “detected”.
On to B2, for which the “2,5-DCP product detected” value is “detected”.
Still for that read-out and setting: for B3 the value was “detected”; for B4, “detected”.
Still for that read-out and setting: the entry for B5 is “detected”; for B6 it is “detected”; for B7 it is “detected”.
On the same count and under the same terms, for B8 the value was “detected”.

The next data set is described as follows: Dicamba decarboxylation activity of computationally designed protein variants and parents (Tables 4, 5). To be noted: native proteins and designed variants; assay not specified.
For the molecule B1, the “dicamba decarboxylase activity (statement in the description)” value is “natural activity; also recorded: native dicamba decarboxylase activity”.
Still for that read-out and setting: for B2 the value was “displays an increase in dicamba decarboxylase activity”; for B3, “displays an increase in dicamba decarboxylase activity”; for B4, “displays an increase in dicamba decarboxylase activity”.
Consider B5, for which the “dicamba decarboxylase activity (statement in the description)” value is “more active than their parent sequence; also recorded: displays an increase in dicamba decarboxylase activity”.
As to B8, the “dicamba decarboxylase activity (statement in the description)” value is given as “improved dicamba decarboxylase activity; also recorded: displays an increase in dicamba decarboxylase activity”.

Still in this data set, the particulars now being: parent (SEQ ID NO: 1 or SEQ ID NO: 41) = 100.
As to B1, the “Percent Activity Improvement Over Parent (%)” value was 100%.
Still for that read-out and setting: the figure for B8 is 220%.

The nature of the next data set: 14C assay: 14CO2 capture from [14C]-carboxyl-labeled dicamba with IPTG-induced recombinant E. coli cells. To be noted: IPTG-induced recombinant E. coli cells; 14CO2 from [14C]-carboxyl-labeled dicamba.
As to B1, the “Dicamba Decarboxylase Activity” value is reported as “High”.
For the molecule B6, the “Dicamba Decarboxylase Activity” value is “High”.
The same measure, in the same setting: the entry for B7 is “High”.

Still in this data set, the particulars now being: among the 108 sequences tested; recombinant E. coli cell assay.
With B1, the “decarboxylation activity of dicamba” value is reported as “showed decarboxylation activity of dicamba”.
The same measure, in the same setting: the entry for B6 is “showed decarboxylation activity of dicamba”; for B7 it is “showed decarboxylation activity of dicamba”.

Staying with this data set, now noted: dicamba decarboxylation activity.
For the molecule B1, the “Enzymatic Detection level” value is “High”.
On the same count and under the same terms, for B2 the value was “High”; for B3, “High”.
Regarding B4, the “Enzymatic Detection level” value is listed as “High”.
On the same count and under the same terms, for B5 the value was “High”; for B6, “High”.
As for B7, the “Enzymatic Detection level” value is “High”.
For B8, the “Enzymatic Detection level” value is on record as “High”.

For the origin of these results see patent publication US20140289906A1, “Compositions Having Dicamba Decarboxylase Activity and Methods of Use” (priority 2013, published 2014).
